The supplement of paper PMC5998384

What was measured:
HeLa Kyoto [1] = test: solubility change mitosis vs G1/S (difference of NP-40 vs SDS log2 ratios) (log2 ratio difference); higher = more soluble in mitosis
HeLa Kyoto [2] = test: solubility in G1/S (NP-40 vs SDS abundance) (log2 ratio); higher = more soluble; details: cell cycle stage: G1/S
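Wherever solubility change mitosis vs G1/S (difference of NP-40 vs SDS log2 ratios) is given: synchronized HeLa Kyoto cells (double thymidine block for G1/S, nocodazole release for mitosis), protein amounts in NP-40 versus SDS lysates quantified by mass spectrometry, three biological replicates.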
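Wherever solubility in G1/S (NP-40 vs SDS abundance) is given: HeLa Kyoto cells arrested at G1/S by double thymidine block, proteins quantified by TMT10plex mass spectrometry in mild NP-40 versus SDS extracts, three biological replicates.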

Sequence	solubility change mitosis (log2) (HeLa Kyoto [1])	solubility in G1/S (log2) (HeLa Kyoto [2])
MFSAGAESLLHQAREIQDEELKKFCSRICKLLQAEDLGPDTLDSLQRLFLIISATKYSRRLEKTCVDLLQATLGLPACPEQLQVLCAAILREMSPSDSLSLAWDHTQNSRQLSLVASVLLAQGDRNEEVRAVGQGVLRALESRQPEGPSLRHLLPVMAKVVVLSPGTLQEDQATLLSKRLVDWLRYASLQQGLPHSGGFFSTPRARQPGPVTEVDGAVATDFFTVLSSGHRFTDDQWLNVQAFSMLRAWLLHSGPEGPGTLDTDDRSEQEGSTLSVISATSSAGRLLPPRERLREVAFEYCQRLIEQSNRRALRKGDSDLQKACLVEAVLVLDVLCRQDPSFLYRSLSCLKALHGRVRGDPASVRVLLPLAHFFLSHGEAAAVDSEAVYQHLFTRIPVEQFHSPMLAFEFIQFCRDNLHLFSGHLSTLRLSFPNLFKFLAWNSPPLTSEFVALLPALVDAGTALEMLHALLDLPCLTAVLDLQLRSAPAASERPLWDTSLRAPSCLEAFRDPQFQGLFQYLLRPKASGATERLAPLHQLLQPMAGCARVAQCAQAVPTLLQAFFSAVTQVADGSLINQLALLLLGRSDSLYPAPGYAAGVHSVLSSQFLALCTLKPSLVVELARDLLEFLGSVNGLCSRASLVTSVVWAIGEYLSVTYDRRCTVEQINKFFEALEALLFEVTQCRPSAALPRCPPQVVTVLMTTLTKLASRSQDLIPRASLLLSKMRTLAHSPATSSTHSEEGAEAIRTRATELLTLLKMPSVAQFVLTPSTEVCSPRYHRDANTALPLALRTVSRLVEREAGLMPG [AP5Z1]	-0.0926	0.134
MFSALKKLVGSDQAPGRDKNIPAGLQSMNQALQRRFAKGVQYNMKIVIRGDRNTGKTALWHRLQGRPFVEEYIPTQEIQVTSIHWSYKTTDDIVKVEVWDVVDKGKCKKRGDGLKMENDPQEAESEMALDAEFLDVYKNCNGVVMMFDITKQWTFNYILRELPKVPTHVPVCVLGNYRDMGEHRVILPDDVRDFIDNLDRPPGSSYFRYAESSMKNSFGLKYLHKFFNIPFLQLQRETLLRQLETNQLDMDATLEELSVQQETEDQNYGIFLEMMEARSRGHASPLAANGQSPSPGSQSPVVPAGAVSTGSSSPGTPQPAPQLPLNAAPPSSVPPVPPSEALPPPACPSAPAPRRSIISRLFGTSPATEAAPPPPEPVPAAEGPATVQSVEDFVPDDRLDRSFLEDTTPARDEKKVGAKAAQQDSDSDGEALGGNPMVAGFQDDVDLEDQPRGSPPLPAGPVPSQDITLSSEEEAEVAAPTKGPAPAPQQCSEPETKWSSIPASKPRRGTAPTRTAAPPWPGGVSVRTGPEKRSSTRPPAEMEPGKGEQASSSESDPEGPIAAQMLSFVMDDPDFESEGSDTQRRADDFPVRDDPSDVTDEDEGPAEPPPPPKLPLPAFRLKNDSDLFGLGLEEAGPKESSEEGKEGKTPSKEKKKKKKKGKEEEEKAAKKKSKHKKSKDKEEGKEERRRRQQRPPRSRERTAADELEAFLGGGAPGGRHPGGGDYEEL [RABL6]	-0.0863	0.183
MFSLKPPKPTFRSYLLPPPQTDDKINSEPKIKKLEPVLLPGEIVVNEVNFVRKCIATDTSQYDLWGKLICSNFKISFITDDPMPLQKFHYRNLLLGEHDVPLTCIEQIVTVNDHKRKQKVLGPNQKLKFNPTELIIYCKDFRIVRFRFDESGPESAKKVCLAIAHYSQPTDLQLLFAFEYVGKKYHNSANKINGIPSGDGGGGGGGGNGAGGGSSQKTPLFETYSDWDREIKRTGASGWRVCSINEGYMISTCLPEYIVVPSSLADQDLKIFSHSFVGRRMPLWCWSHSNGSALVRMALIKDVLQQRKIDQRICNAITKSHPQRSDVYKSDLDKTLPNIQEVQAAFVKLKQLCVNEPFEETEEKWLSSLENTRWLEYVRAFLKHSAELVYMLESKHLSVVLQEEEGRDLSCCVASLVQVMLDPYFRTITGFQSLIQKEWVMAGYQFLDRCNHLKRSEKESPLFLLFLDATWQLLEQYPAAFEFSETYLAVLYDSTRISLFGTFLFNSPHQRVKQSTEFAISKNIQLGDEKGLKFPSVWDWSLQFTAKDRTLFHNPFYIGKSTPCIQNGSVKSFKRTKKSYSSTLRGMPSALKNGIISDQELLPRRNSLILKPKPDPAQQTDSQNSDTEQYFREWFSKPANLHGVILPRVSGTHIKLWKLCYFRWVPEAQISLGGSITAFHKLSLLADEVDVLSRMLRQQRSGPLEACYGELGQSRMYFNASGPHHTDTSGTPEFLSSSFPFSPVGNLCRRSILGTPLSKFLSGAKIWLSTETLANED [MTMR10]	0.00531	-0.147
MFSRNHRSRVTVARGSALEMEFKRGRFRLSLFSDLPEDTELQRKLDHEIRMREGACKLLAACSQREQALEATKSLLVCNSRILSYMGELQRRKEAQVLGKTSRRPSDSGPPAERSPCRGRVCISDLRIPLMWKDTEYFKNKGDLHRWAVFLLLQLGEHIQDTEMILVDRTLTDISFQSNVLFAEAGPDFELRLELYGACVEEEGALTGGPKRLATKLSSSLGRSSGRRVRASLDSAGGSGSSPILLPTPVVGGPRYHLLAHTTLTLAAVQDGFRTHDLTLASHEENPAWLPLYGSVCCRLAAQPLCMTQPTASGTLRVQQAGEMQNWAQVHGVLKGTNLFCYRQPEDADTGEEPLLTIAVNKETRVRAGELDQALGRPFTLSISNQYGDDEVTHTLQTESREALQSWMEALWQLFFDMSQWKQCCDEIMKIETPAPRKPPQALAKQGSLYHEMAIEPLDDIAAVTDILTQREGARLETPPPWLAMFTDQPALPNPCSPASVAPAPDWTHPLPWGRPRTFSLDAVPPDHSPRARSVAPLPPQRSPRTRGLCSKGQPRTWLQSPV [RTKN]	-0.0634	0.208
MGAAGSSALARFVLLAQSRPGWLGVAALGLTAVALGAVAWRRAWPTRRRRLLQQVGTVAQLWIYPVKSCKGVPVSEAECTAMGLRSGNLRDRFWLVINQEGNMVTARQEPRLVLISLTCDGDTLTLSAAYTKDLLLPIKTPTTNAVHKCRVHGLEIEGRDCGEATAQWITSFLKSQPYRLVHFEPHMRPRRPHQIADLFRPKDQIAYSDTSPFLILSEASLADLNSRLEKKVKATNFRPNIVISGCDVYAEDSWDELLIGDVELKRVMACSRCILTTVDPDTGVMSRKEPLETLKSYRQCDPSERKLYGKSPLFGQYFVLENPGTIKVGDPVYLLGQ [MARC1]	-0.0926	0.00278
MGALARALLLPLLAQWLLRAAPELAPAPFTLPLRVAAATNRVVAPTPGPGTPAERHADGLALALEPALASPAGAANFLAMVDNLQGDSGRGYYLEMLIGTPPQKLQILVDTGSSNFAVAGTPHSYIDTYFDTERSSTYRSKGFDVTVKYTQGSWTGFVGEDLVTIPKGFNTSFLVNIATIFESENFFLPGIKWNGILGLAYATLAKPSSSLETFFDSLVTQANIPNVFSMQMCGAGLPVAGSGTNGGSLVLGGIEPSLYKGDIWYTPIKEEWYYQIEILKLEIGGQSLNLDCREYNADKAIVDSGTTLLRLPQKVFDAVVEAVARASLIPEFSDGFWTGSQLACWTNSETPWSYFPKISIYLRDENSSRSFRITILPQLYIQPMMGAGLNYECYRFGISPSTNALVIGATVMEGFYVIFDRAQKRVGFAASPCAEIAGAAVSEISGPFSTEDVASNCVPAQSLSEPILWIVSYALMSVCGAILLVLIVLLLLPFRCQRRPRDPEVVNDESSLVRHRWK [BACE2]	0.0177	0.0932
MGAQDRPQCHFDIEINREPVGRIMFQLFSDICPKTCKNFLCLCSGEKGLGKTTGKKLCYKGSTFHRVVKNFMIQGGDFSEGNGKGGESIYGGYFKDENFILKHDRAFLLSMANRGKHTNGSQFFITTKPAPHLDGVHVVFGLVISGFEVIEQIENLKTDAASRPYADVRVIDCGVLATKSIKDVFEKKRKKPTHSEGSDSSSNSSSSSESSSESELEHERSRRRKHKRRPKVKRSKKRRKEASSSEEPRNKHAMNPKGHSERSDTNEKRSVDSSAKREKPVVRPEEIPPVPENRFLLRRDMPVVTAEPEPKIPDVAPIVSDQKPSVSKSGRKIKGRGTIRYHTPPRSRSCSESDDDDSSETPPHWKEEMQRLRAYRPPSGEKWSKGDKLSDPCSSRWDERSLSQRSRSWSYNGYYSDLSTARHSGHHKKRRKEKKVKHKKKGKKQKHCRRHKQTKKRRILIPSDIESSKSSTRRMKSSCDRERSSRSSSLSSHHSSKRDWSKSDKDVQSSLTHSSRDSYRSKSHSQSYSRGSSRSRTASKSSSHSRSRSKSRSSSKSGHRKRASKSPRKTASQLSENKPVKTEPLRATMAQNENVVVQPVVAENIPVIPLSDSPPPSRWKPGQKPWKPSYERIQEMKAKTTHLLPIQSTYSLANIKETGSSSSYHKREKNSESDQSTYSKYSDRSSESSPRSRSRSSRSRSYSRSYTRSRSLASSHSRSRSPSSRSHSRNKYSDHSQCSRSSSYTSISSDDGRRAKRRLRSSGKKNSVSHKKHSSSSEKTLHSKYVKGRDRSSCVRKYSESRSSLDYSSDSEQSSVQATQSAQEKEKQGQMERTHNKQEKNRGEEKSKSERECPHSKKRTLKENLSDHLRNGSKPKRKNYAGSKWDSESNSERDVTKNSKNDSHPSSDKEEGEATSDSESEVSEIHIKVKPTTKSSTNTSLPDDNGAWKSSKQRTSTSDSEGSCSNSENNRGKPQKHKHGSKENLKREHTKKVKEKLKGKKDKKHKAPKRKQAFHWQPPLEFGEEEEEEIDDKQVTQESKEKKVSENNETIKDNILKTEKSSEEDLSGKHDTVTVSSDLDQFTKDDSKLSISPTALNTEENVACLQNIQHVEESVPNGVEDVLQTDDNMEICTPDRSSPAKVEETSPLGNARLDTPDINIVLKQDMATEHPQAEVVKQESSMSESKVLGEVGKQDSSSASLASAGESTGKKEVAEKSQINLIDKKWKPLQGVGNLAAPNAATSSAVEVKVLTTVPEMKPQGLRIEIKSKNKVRPGSLFDEVRKTARLNRRPRNQESSSDEQTPSRDDDSQSRSPSRSRSKSETKSRHRTRSVSYSHSRSRSRSSTSSYRSRSYSRSRSRGWYSRGRTRSRSSSYRSYKSHRTSSRSRSRSSSYDPHSRSRSYTYDSYYSRSRSRSRSQRSDSYHRGRSYNRRSRSCRSYGSDSESDRSYSHHRSPSESSRYS [NKTR]	0.283	-1.34
MGATGDAEQPRGPSGAERGGLELGDAGAAGQLVLTNPWNIMIKHRQVQRRGRRSQMTTSFTDPAISMDLLRAVLQPSINEEIQTVFNKYMKFFQKAALNVRDNVGEEVDAEQLIQEACRSCLEQAKLLFSDGEKVIPRLTHELPGIKRGRQAEEECAHRGSPLPKKRKGRPPGHILSSDRAAAGMVWKPKSCEPIRREGPKWDPARLNESTTFVLGSRANKALGMGGTRGRIYIKHPHLFKYAADPQDKHWLAEQHHMRATGGKMAYLLIEEDIRDLAASDDYRGCLDLKLEELKSFVLPSWMVEKMRKYMETLRTENEHRAVEAPPQT [DNTTIP1]	-0.0131	0.512
